Blank lines part the entries; values can stand above or below the molecule they belong to.
Legend:
[1] = test system: recombinant CH3H from Cosmos sulphureus; assay: Enzyme assay and kinetic studies of recombinant CH3H with 14C-labelled substrates; assay type: biochemical; conditions: recombinant enzyme from the Cosmos sulphureus cDNA clone expressed in yeast
Text: Heterologous Expression in Yeast For the heterologous expression, the proofreading amplicons were ligated into the yeast expression vector pYES2.1/V5-His-TOPO® (Invitrogen, UK) and transformed into E. coli TOP10F′ (Invitrogen, UK). The identification of the sense constructs took place with a PCR, for which a gene-specific forward and a plasmid-specific reverse primer was used. Sense constructs were isolated and the correct sequence confirmed by sequencing. Desired plasmids were then transformed into the yeast strain INVSc 1 (Invitrogen, UK). The heterologous expression was performed according to methods known in science, and the prepared proteins were shock-frozen in liquid nitrogen and stored at −80° C. […]
(§1) In order to determine the substrate specificity of the heterologously expressed F3′Hs, the following enzyme tests were performed: 20 μg of the recombinant wild-type CH3H or 50 μg of the hybrid proteins, respectively, were incubated with 0.25 nmol [14C]-marked chalcone or flavonoid substrates in the presence of 10 mM NADPH and 0.1 M KH2PO4—K2HPO4 (with 0.4% Na-ascorbate, pH: 7.5) buffer at 30° C. […] Detection and quantification of radioactivity took place using TLC analysis.
Kinetic data (apparent Michaelis constant (Km) and maximum speed of reaction (Vmax)) were determined using Lineweaver Burk plots.

[2] = CH3H activity (hydroxylation of chalcones) of heterologously expressed native, chimeric and mutated enzymes; assay type: biochemical, Cosmos sulphureus; conditions: recombinant enzymes expressed in yeast
Text: (§2) Heterologous Expression in Yeast For the heterologous expression, the proofreading amplicons were ligated into the yeast expression vector pYES2.1/V5-His-TOPO® (Invitrogen, UK) and transformed into E. coli TOP10F′ (Invitrogen, UK). The identification of the sense constructs took place with a PCR, for which a gene-specific forward and a plasmid-specific reverse primer was used. Sense constructs were isolated and the correct sequence confirmed by sequencing. Desired plasmids were then transformed into the yeast strain INVSc 1 (Invitrogen, UK). The heterologous expression was performed according to methods known in science, and the prepared proteins were shock-frozen in liquid nitrogen and stored at −80° C. The determination of the amount of protein in the preparations was performed according to a modified Lowry method.
as §1

[3] = F3′H activity (substrate acceptance) of heterologously expressed native, chimeric and mutated enzymes; assay type: biochemical, Cosmos sulphureus; conditions: recombinant enzymes expressed in yeast
Text: as §2, §1

catalytic CH3H activity with substrate [1]: high catalytic CH3H activities
Molecule: O=C(/C=C/c1ccc(O)cc1)c1ccc(O)cc1O [Iso, isoliquiritigenin]

CH3H activity (hydroxylation of chalcones) [2]: lacking CH3H activity
F3′H activity [3]: confirmed the F3′H activity
B1: F3′H: recombinant F3′H from Cosmos sulphureus (Accession No.: FJ216426), tested as a comparison (protein, listed as Cosmos sulphureus)
chain: MTILPLLLYPSLTALLLYVLLNLRPRHPNRLPPGPSPWPIVGNLPHLGTTPHHSLAALAAKYGPLMHLRLGFVDVVVAASASVASQFLKTHDANFASRPPNSGAEHMAYNYQDLVFAPYGPRWRMLRKICSVHLFSGKALDDFRHVRQEEVAVLTRALAGAGKSPVKLGQLLSVCTTNALARVMLGRRVFGERDAKADEFKDMVVEMMVLAGEFNIGDFIPALDWLDLQGITKKMKKLHAQFDSFLNTILEEHKTGKGGSSSHRDLSSTLIALKDDADGEGGKLSDIEIKALLLNLFIAGTDTSSSTVEWAIAELIRCPQILRQAHEEMDNVVGRERLVTESDLGKLTFLQAIVKETFRLHPSTPLSLPRIASESCEIDGYFIPKGSTLLVNVWAIARDPKMWTDPLEFRPTRFLPGGEKPNVDVKGNDFEVIPFGAGRRICVGISLGLRMVQLLVATLVQTFDWELANGVLPEKLNMNEAFGLTLQRAEPLIVYPKPRLAPHVYESG

Reference: patent US8318918B2, “Chalcone 3-hydroxylase” (Technische Universitat Wien, priority 2009, dated 2012)
